Measurements reported in PMC3196764 (Progress in retinal and eye research, 2011).

Tests used:
calmodulin (Bos taurus) = calmodulin (Bos taurus) (UniProt P62157); settings: cited from earlier work
[1] = target: light-activated unphosphorylated rhodopsin (UniProt P02699 1-348, light-activated)
Chain of light-activated unphosphorylated rhodopsin (P02699 whole entry): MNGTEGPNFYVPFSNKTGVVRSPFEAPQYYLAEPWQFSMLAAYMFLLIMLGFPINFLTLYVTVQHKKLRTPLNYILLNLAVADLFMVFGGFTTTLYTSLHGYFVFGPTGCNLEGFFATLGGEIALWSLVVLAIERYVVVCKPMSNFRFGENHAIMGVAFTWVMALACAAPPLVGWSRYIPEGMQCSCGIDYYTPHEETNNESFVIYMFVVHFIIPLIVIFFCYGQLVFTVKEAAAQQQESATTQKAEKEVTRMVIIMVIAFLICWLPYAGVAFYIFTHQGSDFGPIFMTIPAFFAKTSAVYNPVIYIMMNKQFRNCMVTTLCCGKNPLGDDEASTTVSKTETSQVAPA

percent of the maximum binding achieved at 37°C [1]	Molecule	Kd (calmodulin (Bos taurus))
	arrestin-1 (from UniProt P08168)	7 µM
26%	arrestin-1 3A+R175E combination mutant (natural protein, UniProt P08168 1-404, looked up) MKANKPAPNHVIFKKISRDKSVTIYLGKRDYIDHVERVEPVDGVVLVDPELVKGKRVYVSLTCAFRYGQEDIDVMGLSFRRDLYFSQVQVFPPVGASGATTRLQESLIKKLGANTYPFLLTFPDYLPCSVMLQPAPQDVGKSCGVDFEIKAFATHSTDVEEDKIPKKSSVRLLIEKVQHAPRDMGPQPRAEASWQFFMSDKPLRLAVSLSKEIYYHGEPIPVTVAVTNSTEKTVKKIKVLVEQVTNVVLYSSDYYIKTVAAEEAQEKVPPNSSLTKTLTLVPLLANNRERRGIALDGKIKHEDTNLASSTIIKEGIDKTVMGILVSYQIKVKLTVSGLLGELTSSEVATEVPFRLMHPQPEDPDTAKESFQDENAAAEEFARQNLKDAGEYKEEKTDQEAAMDE	
